Reference: article PMC4538832, “Structures of the T. brucei kRNA editing factor MRB1590 reveal unique RNA-binding pore motif contained within an ABC-ATPase fold” (Nucleic Acids Research, 2015)

test system: T1, MRB1590(10-668) (Trypanosoma brucei), UPI00067E648B; assay: fluorescence polarization; conditions: FP: 20 mM Tris-HCl pH 7.5, 150 mM NaCl, 5% glycerol, 1 mM MgCl2, 2 mM ADP or AMP-PNP, 1 nM 3'-fluoresceinated RNA (heated to 99 C, slow cooled), 25 C
T1 sequence: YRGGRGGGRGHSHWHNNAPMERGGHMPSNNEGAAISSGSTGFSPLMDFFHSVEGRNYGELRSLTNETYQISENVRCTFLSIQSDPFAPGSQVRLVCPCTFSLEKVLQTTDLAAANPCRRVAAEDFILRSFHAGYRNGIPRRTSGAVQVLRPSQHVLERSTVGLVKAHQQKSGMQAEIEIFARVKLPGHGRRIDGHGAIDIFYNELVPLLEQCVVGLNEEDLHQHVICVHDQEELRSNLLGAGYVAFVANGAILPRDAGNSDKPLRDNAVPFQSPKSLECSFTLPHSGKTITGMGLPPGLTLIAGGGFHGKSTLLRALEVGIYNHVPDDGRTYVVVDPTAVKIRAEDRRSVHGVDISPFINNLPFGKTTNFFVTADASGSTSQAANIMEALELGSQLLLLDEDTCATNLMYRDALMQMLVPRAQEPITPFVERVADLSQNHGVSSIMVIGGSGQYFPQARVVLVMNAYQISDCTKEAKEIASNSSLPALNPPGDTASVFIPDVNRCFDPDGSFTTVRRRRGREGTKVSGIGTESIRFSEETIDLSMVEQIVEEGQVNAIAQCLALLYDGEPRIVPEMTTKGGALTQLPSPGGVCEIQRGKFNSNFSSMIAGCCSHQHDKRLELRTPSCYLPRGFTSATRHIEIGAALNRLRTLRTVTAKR

Row | Substance | Kd [nM]
1 | 40 mer GC-rich A6 | 1.3
2 | GC-rich RNA 14 mer | 236
3 | GC-rich RNA 15 mer | 27.9
4 | GC-rich RNA 16 mer | 8.2
5 | GC-rich RNA 18 mer | 5.7
